Measured values as given in patent publication US20120107324A1.
Values belong to the substance of their own block, whether it stands above or below them.

What was measured:
αvβ6 integrin = αvβ6 integrin (UniProt P06756); test: FACS on HT29 cells, positive control; Gt anti Mouse alone 2.52
Macaque α5β1 (Macaque) [1] = test: FACS on macaque T-cells, isotype control; Goat anti Human IgG Fc Cy5 alone 3
[2] = target: human α5β1 integrin (human) (UniProt P08648); test: FACS on human α5β1-transfected 300.19 cells, 2.0 ug/mL
Chain of human α5β1 integrin (human) (P08648 42-1049, chain 1 of 2): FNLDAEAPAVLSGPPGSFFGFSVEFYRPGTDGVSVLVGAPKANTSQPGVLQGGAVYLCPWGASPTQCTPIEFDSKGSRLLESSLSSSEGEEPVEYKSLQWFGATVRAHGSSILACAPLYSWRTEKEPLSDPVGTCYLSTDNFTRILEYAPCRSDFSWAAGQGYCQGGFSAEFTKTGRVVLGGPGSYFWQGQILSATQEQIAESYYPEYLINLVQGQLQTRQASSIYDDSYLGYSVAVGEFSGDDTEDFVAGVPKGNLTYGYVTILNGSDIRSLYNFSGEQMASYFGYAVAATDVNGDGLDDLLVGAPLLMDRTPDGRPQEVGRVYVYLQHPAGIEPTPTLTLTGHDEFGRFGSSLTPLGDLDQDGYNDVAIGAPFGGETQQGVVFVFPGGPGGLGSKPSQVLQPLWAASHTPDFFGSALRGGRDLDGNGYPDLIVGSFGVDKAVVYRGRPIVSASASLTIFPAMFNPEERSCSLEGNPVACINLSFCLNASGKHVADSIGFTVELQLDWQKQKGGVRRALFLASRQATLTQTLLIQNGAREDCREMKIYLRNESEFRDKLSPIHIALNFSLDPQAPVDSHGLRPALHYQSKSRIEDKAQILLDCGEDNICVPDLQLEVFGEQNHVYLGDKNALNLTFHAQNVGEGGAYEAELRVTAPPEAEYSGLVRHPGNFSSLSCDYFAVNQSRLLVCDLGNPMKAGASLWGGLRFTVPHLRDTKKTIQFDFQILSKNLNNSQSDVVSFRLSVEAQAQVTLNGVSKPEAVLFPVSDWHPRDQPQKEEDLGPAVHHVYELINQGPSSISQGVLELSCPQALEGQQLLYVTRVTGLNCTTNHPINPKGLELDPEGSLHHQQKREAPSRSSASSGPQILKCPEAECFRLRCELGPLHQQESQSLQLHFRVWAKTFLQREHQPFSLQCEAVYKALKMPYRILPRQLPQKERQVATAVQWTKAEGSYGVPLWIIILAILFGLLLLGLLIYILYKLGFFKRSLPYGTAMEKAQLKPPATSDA
Chain of human α5β1 integrin (human) (P05556 21-798, chain 2 of 2, further chain): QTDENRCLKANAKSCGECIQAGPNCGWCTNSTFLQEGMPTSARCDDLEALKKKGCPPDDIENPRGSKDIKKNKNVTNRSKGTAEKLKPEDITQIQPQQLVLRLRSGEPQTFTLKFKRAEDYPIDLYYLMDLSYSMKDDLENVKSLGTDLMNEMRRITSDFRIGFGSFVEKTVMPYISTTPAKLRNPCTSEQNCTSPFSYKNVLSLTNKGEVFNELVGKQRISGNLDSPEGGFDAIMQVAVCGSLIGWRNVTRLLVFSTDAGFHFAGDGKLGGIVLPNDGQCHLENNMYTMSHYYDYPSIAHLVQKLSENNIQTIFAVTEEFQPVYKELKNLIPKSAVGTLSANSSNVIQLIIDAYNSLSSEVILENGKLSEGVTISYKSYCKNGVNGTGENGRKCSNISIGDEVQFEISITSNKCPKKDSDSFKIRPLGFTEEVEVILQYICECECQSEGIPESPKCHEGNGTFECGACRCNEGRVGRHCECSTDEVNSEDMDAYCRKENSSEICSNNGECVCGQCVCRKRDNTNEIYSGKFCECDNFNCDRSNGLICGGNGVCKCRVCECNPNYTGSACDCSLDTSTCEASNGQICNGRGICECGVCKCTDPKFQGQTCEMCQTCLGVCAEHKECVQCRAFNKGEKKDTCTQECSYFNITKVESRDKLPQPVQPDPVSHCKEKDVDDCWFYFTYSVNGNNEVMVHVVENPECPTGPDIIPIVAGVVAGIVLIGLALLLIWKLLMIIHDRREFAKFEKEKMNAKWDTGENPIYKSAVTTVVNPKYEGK

[3] = target: human α5β1 integrin (human) (UniProt P08648); test: FACS on human α5β1-transfected against untransfected 300.19 cells, 2.0 ug/mL
[4] = target: β1 chain (integrin β1) (human) (UniProt P05556); test: FACS on HT29 cells, isotype control; human secondary 2.8
Chain of β1 chain (integrin β1) (human) (P05556 21-798): as the sequence (P05556 21-798, chain 2 of 2, further chain) above

[5] = target: Macaque αv chain (Macaque); test: FACS on macaque T-cells; Goat anti Mouse IgGFc Cy5 alone 2
αv integrin chain = αv integrin chain (UniProt P06756); test: FACS on HT29 cells, positive control; Gt anti Mouse alone 2.52
Chain of αv integrin chain (P06756 31-1048 limits assumed): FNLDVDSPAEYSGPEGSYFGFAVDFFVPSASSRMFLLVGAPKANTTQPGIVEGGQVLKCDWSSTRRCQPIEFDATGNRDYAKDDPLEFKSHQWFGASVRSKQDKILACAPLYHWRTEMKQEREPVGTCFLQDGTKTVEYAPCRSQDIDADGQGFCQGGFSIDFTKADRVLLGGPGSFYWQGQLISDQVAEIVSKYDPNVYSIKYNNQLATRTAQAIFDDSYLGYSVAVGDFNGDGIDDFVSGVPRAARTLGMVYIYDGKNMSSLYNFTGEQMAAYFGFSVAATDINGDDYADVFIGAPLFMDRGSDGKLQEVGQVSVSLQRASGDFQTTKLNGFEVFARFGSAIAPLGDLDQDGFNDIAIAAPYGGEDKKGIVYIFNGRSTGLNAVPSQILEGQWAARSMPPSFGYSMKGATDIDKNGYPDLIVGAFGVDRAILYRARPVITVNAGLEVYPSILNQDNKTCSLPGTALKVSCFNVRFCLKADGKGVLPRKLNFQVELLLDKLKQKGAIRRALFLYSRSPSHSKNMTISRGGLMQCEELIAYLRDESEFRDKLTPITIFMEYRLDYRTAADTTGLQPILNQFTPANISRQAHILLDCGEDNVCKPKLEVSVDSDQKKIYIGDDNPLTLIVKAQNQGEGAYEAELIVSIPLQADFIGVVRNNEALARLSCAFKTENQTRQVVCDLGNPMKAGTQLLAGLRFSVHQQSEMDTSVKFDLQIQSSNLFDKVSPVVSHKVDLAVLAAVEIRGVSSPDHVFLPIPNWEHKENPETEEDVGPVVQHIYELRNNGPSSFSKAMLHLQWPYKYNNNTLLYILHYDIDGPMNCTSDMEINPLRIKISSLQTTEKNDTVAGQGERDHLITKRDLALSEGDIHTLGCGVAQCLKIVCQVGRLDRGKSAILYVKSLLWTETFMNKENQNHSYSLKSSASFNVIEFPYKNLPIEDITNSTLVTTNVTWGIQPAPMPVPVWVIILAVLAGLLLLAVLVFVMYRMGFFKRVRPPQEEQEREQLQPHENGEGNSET

[6] = target: β1 chain (integrin β1) (human) (UniProt P05556); test: FACS on HT29 cells, isotype control; Gt anti Mouse alone 2.52
Macaque α5β1 (Macaque) [7] = test: FACS on macaque T-cells, isotype control; Goat anti Mouse IgGFc Cy5 alone 2
[8] = target: Macaque β1 chain (Macaque); test: FACS on macaque T-cells; Goat anti Mouse IgGFc Cy5 alone 2
[9] = target: β1 chain (integrin β1) (human) (UniProt P05556); test: FACS on HT29 cells; Gt anti Mouse alone 2.52
[10] = target: human α5β1 integrin (human) (UniProt P08648); test: FACS on human α5β1-transfected against untransfected 300.19 cells, 0.02 ug/mL
[11] = target: β1 chain (integrin β1) (human) (UniProt P05556); test: FACS on HT29 cells (α5 null, β1 present); Gt anti Mouse alone 2.52
[12] = target: human α5β1 integrin (human) (UniProt P08648); test: FACS on human α5β1-transfected against untransfected 300.19 cells, 0.2 ug/mL
[13] = target: human α5β1 integrin (human) (UniProt P08648); test: FACS on human α5β1-transfected 300.19 cells, 0.2 ug/mL
[14] = target: human α5β1 integrin (human) (UniProt P08648); test: FACS on human α5β1-transfected 300.19 cells, 0.02 ug/mL

Chain of αvβ6 integrin (P06756 31-1048, chain 1 of 2): as the sequence (P06756 31-1048 limits assumed) above
Chain of αvβ6 integrin (P18564 22-788, chain 2 of 2, further chain): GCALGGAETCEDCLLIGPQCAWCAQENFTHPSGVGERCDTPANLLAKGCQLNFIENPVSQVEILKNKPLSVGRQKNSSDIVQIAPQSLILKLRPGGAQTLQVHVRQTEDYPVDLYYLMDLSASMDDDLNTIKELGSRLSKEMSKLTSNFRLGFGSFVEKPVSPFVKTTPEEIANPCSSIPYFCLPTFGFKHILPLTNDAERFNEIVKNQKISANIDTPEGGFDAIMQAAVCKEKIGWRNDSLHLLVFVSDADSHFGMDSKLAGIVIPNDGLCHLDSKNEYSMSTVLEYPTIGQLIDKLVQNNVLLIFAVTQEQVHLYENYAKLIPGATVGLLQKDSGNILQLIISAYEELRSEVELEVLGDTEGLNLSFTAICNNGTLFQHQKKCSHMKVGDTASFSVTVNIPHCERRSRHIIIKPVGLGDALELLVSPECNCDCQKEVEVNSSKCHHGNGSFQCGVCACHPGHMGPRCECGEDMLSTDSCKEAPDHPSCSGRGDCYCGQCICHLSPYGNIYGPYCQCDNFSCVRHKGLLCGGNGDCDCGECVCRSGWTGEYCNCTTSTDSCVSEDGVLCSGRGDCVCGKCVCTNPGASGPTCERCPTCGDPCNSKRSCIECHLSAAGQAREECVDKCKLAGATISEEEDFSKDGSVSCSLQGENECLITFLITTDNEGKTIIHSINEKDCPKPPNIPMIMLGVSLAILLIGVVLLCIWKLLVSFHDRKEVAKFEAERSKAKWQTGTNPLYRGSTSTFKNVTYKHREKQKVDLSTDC

Substance: MAB2077Z (antibody)
Binding Geomean (αvβ6 integrin): 39.2

Substance: Human IgG4 (antibody)
Binding Geomean [4]: 3.2

Substance: Mouse IgG1 (antibody)
X Geo Mean [2]: 14.9
Binding Geomean [6]: 2.55
Ratio (α5β1 expressing B300.19 cells against B300.19 cells) [3]: 0.9
Geo Mean on Macaque T-cells IgG detection (Macaque α5β1 (Macaque) [7]): 2

Substance: 4B4 (antibody)
Geo Mean on Macaque T-cells IgG detection [8]: 141
Binding Geomean [9]: 362

Other lines, results leading:

Geo Mean on Macaque T-cells IgG detection (Macaque α5β1 (Macaque) [1]): 3
Substance: Human IgG2/4 (antibody)

X Geo Mean [2]: 12
Ratio (α5β1 expressing B300.19 cells against B300.19 cells) [3]: 0.8
Binding Geomean [4]: 2.84
Substance: Human IgG2 (antibody)

Geo Mean on Macaque T-cells IgG detection [5]: 3
Binding Geomean (αv integrin chain): 294
Substance: L230 (antibody)

Binding Geomean [6]: 10.2
Substance: Mouse IgG2a (antibody)

X Geo Mean [2]: 194
Ratio (α5β1 expressing B300.19 cells against B300.19 cells) [10]: 2.5
Ratio (α5β1 expressing B300.19 cells against B300.19 cells) [3]: 9.5
Binding Geomean [11]: 2.69
Ratio (α5β1 expressing B300.19 cells against B300.19 cells) [12]: 6.9
X Geo Mean [13]: 152
X Geo Mean [14]: 45.1
Substance: mAb 1969 (antibody)
